Where “and” joins values, the source holds several entries; their conditions need not be identical. Equal entries are not always repeated. Where two headings read alike, the source gives them in different places.
Columns and labels:
Human OSM [1] = target: T1, Human OSM (human, UniProt P13725 26-221); assay: BIAcore, purified antibody
T1 construct: Recombinant human OSM; also called hOSM; human Oncostatin M
T1 sequence: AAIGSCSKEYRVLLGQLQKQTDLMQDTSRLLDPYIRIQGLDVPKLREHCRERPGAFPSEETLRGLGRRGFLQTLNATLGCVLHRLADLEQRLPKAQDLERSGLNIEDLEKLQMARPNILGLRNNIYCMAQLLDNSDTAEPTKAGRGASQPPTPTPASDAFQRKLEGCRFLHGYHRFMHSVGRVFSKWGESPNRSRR

Human OSM [2] = target: T1, Human OSM; assay: cell-based or functional assay
Cynomolgus OSM [3] = target: T2, Cynomolgus OSM (cynomolgus, UniProt A0A2K5VPC6 26-221); assay: cell-based or functional assay
T2 sequence: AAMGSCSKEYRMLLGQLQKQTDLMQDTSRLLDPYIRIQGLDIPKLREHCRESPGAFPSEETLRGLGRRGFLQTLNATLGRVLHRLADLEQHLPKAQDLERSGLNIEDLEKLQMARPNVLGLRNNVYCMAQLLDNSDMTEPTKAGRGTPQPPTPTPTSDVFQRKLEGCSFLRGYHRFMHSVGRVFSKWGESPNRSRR

Human OSM [4] = target: T1, Human OSM; assay: cell-based or functional assay; remark: listed apart in the source
Cynomolgus OSM [5] = target: T2, Cynomolgus OSM; assay: cell-based or functional assay; remark: listed apart in the source
Marmoset OSM [6] = target: Marmoset OSM (marmoset); assay: cell-based or functional assay
Human OSM [7] = target: T1, Human OSM; assay: Kinexa solution phase affinity
Method: (§1) Kinexa (Sapidyne Instruments 3200) solution phase affinity was used to determine the overall affinity of anti-OSM antibody H0(huCDRH1)L1 and Humanised 15E10 (an unrelated OSM antibody) to human, cynomolgus macaque, rhesus macaque and marmoset OSM (Table 15). Humanised 15E10 was added for comparison purposes.
(§2) OSM beads were prepared either by adsorption (polymethylmethacrylate beads-PMMA) or amine coupling (NHS-activated sepharose beads). The range of OSM molecules studied necessitated the generation of beads coated with different concentrations of OSM. For the solution phase portion of the assay, a fixed concentration of antibody was incubated with a broad range of OSM concentrations and allowed to reach equilibrium by incubation at r.t. for at least 2 h before analysis proceeded. The OSM beads were then used to determine the amount of free antibody present in the solution phase samples, by means of the free antibody binding to the OSM bead matrix then detected using an appropriate secondary antibody (either anti-human or anti-mouse depending on the construct being tested) labelled with a fluorescent dye. The binding curves where fitted using the Kinexa Pro analysis software inherent to the machine. Multiple runs using varying starting concentrations of antibody were then compiled and analysed using the n-curve analysis software to give a more accurate determination of affinity.

Cynomolgus OSM [8] = target: T2, Cynomolgus OSM; assay: Kinexa solution phase affinity
Method: as §1, §2

Marmoset OSM [9] = target: T3, Marmoset OSM (marmoset); assay: Kinexa solution phase affinity
T3 construct: also called Marm OSM
Method: as §1, §2

Rhesus OSM = target: T4, Rhesus OSM (rhesus macaque, UniProt F7GF43 26-221); assay: Kinexa solution phase affinity
T4 construct: also called rhesus macaque OSM
T4 sequence: T2 sequence
Method: as §1, §2

Human OSM [10] = target: T1, Human OSM; assay: cell-based or functional assay; remark: listed apart in the source
Human OSM [11] = target: T1, Human OSM; assay: cell-based or functional assay; remark: listed apart in the source
Human OSM [12] = target: T1, Human OSM; assay: cell-based or functional assay; remark: listed apart in the source
Human OSM [13] = target: T1, Human OSM; assay: cell-based or functional assay; remark: listed apart in the source
Human OSM [14] = target: T1, Human OSM; assay: cell-based or functional assay; remark: listed apart in the source
Human OSM [15] = target: T1, Human OSM; assay: cell-based or functional assay; remark: listed apart in the source
Human OSM [16] = target: T1, Human OSM; assay: cell-based or functional assay; remark: listed apart in the source
Human OSM [17] = target: T1, Human OSM; assay: cell-based or functional assay; remark: listed apart in the source
Human OSM [18] = target: T1, Human OSM; assay: BIAcore kinetics, purified antibody
Cynomolgus OSM [19] = target: T2, Cynomolgus OSM; assay: BIAcore kinetics, purified antibody
Human OSM [20] = target: T1, Human OSM; assay: BIAcore kinetics, transfection supernatant
Cynomolgus OSM [21] = target: T2, Cynomolgus OSM; assay: BIAcore kinetics, transfection supernatant
[22] = target: T5, Endogenous human OSM (neutrophil-derived) (human, UniProt P13725 26-221, limits assumed); assay: gp130 ELISA with endogenous neutrophil-derived human OSM
T5 construct: Native OSM generated from GM-CSF stimulation of healthy human neutrophils; also called native OSM; endogenous OSM
T5 sequence: T1 sequence

[23] = target: T5, Endogenous human OSM …; assay: as above; remark: listed apart in the source

B1: Humanised 10G8 H0(IGHV3-23)L1 (antibody, human IgG1, kappa, V domains shown)
VH: EVQLVESGGGLVQPGGSLRLSCAASGFTFSSYAMSWVRQAPGKGLEWVATISDGGSFTYYLDNVRGRFTISRDNAKNSLYLQMNSLRAEDTAVYYCARDVGHTTFWYFDVWGRGTLVTVSS
VL: DIVMTQSPDSLAVSLGERATINCRASKSVSAAGYNFMHWYQQKPGQPPKVLIYYASNLESGVPDRFSGSGSGTDFTLTISSLQAEDVAVYYCLHSREFPFTFGGGTKVEIKR
notes: IgG1 kappa; also called H0(huCDRH1)L1; H0 (CDRH1 IGHV3_23) L1
With B1 the “fold increased affinity compared with 15E10h” value (Human OSM [1]) was 6.5 fold, the “KB cell neutralisation assay, mean IC50” value (Human OSM [2]) was 0.008 µg/ml and 53 pM and the “KB cell neutralisation assay, mean IC50” value (Cynomolgus OSM [3]) was 0.007 µg/ml and 47 pM. The “KB cell neutralisation assay, mean IC50” value (Human OSM [4]) was 0.003 µg/ml and 20 pM, the “KB cell neutralisation assay, mean IC50” value (Cynomolgus OSM [5]) was 0.0041 µg/ml and 27 pM and the “KB cell neutralisation assay, mean IC50” value (Marmoset OSM [6]) was 0.0036 µg/ml and 24 pM. It also gave a Kd (Human OSM [7]) of 0.038 nM, a Kd (Cynomolgus OSM [8]) of 0.053 nM and a Kd (Marmoset OSM [9]) of 0.021 nM. The Kd (Rhesus OSM) was 0.122 nM, the “IC50 (read off the curve); IL-6 release from HFLS-RA cells stimulated with 0.3 ng/ml human OSM” value (Human OSM [10]) was ~0.006 nM and the “IC50 (read off the curve); IL-6 release from HFLS-RA cells stimulated with 3 ng/ml human OSM” value (Human OSM [11]) was ~0.1 nM. For the same binder, the “IC50 (read off the curve); MCP-1 release from HFLS-RA cells stimulated with 0.3 ng/ml human OSM” value (Human OSM [12]) was ~0.005 nM, the “IC50 (read off the curve); MCP-1 release from HFLS-RA cells stimulated with 3 ng/ml human OSM” value (Human OSM [13]) was ~0.1 nM and the “IC50 (read off the curve); MCP-1 release from normal human lung fibroblasts stimulated with 3 ng/ml OSM” value (Human OSM [14]) was ~0.01 µg/mL. For the same binder, the “IC50 (read off the curve); MCP-1 release from IPF human lung fibroblasts stimulated with 3 ng/ml OSM” value (Human OSM [15]) was ~0.03 µg/mL, the “IC50 (read off the curve); IL-6 release from normal human lung fibroblasts stimulated with 3 ng/ml OSM” value (Human OSM [16]) was ~0.006 µg/mL and the “IC50 (read off the curve); IL-6 release from IPF human lung fibroblasts stimulated with 3 ng/ml OSM” value (Human OSM [17]) was ~0.01 µg/mL. It also gave a Kd (Human OSM [18]) of 0.136 nM, a koff (Human OSM [18]) of 9.65e-05 s⁻¹ and a kon (Human OSM [18]) of 709000 M⁻¹ s⁻¹. It also gave a Kd (Cynomolgus OSM [19]) of 0.199 nM, a koff (Cynomolgus OSM [19]) of 8.39e-05 s⁻¹ and a kon (Cynomolgus OSM [19]) of 423000 M⁻¹ s⁻¹. The Kd (Human OSM [20]) was 0.437 nM, the koff (Human OSM [20]) was 0.000158 s⁻¹ and the kon (Human OSM [20]) was 361000 M⁻¹ s⁻¹. For the same binder, the Kd (Cynomolgus OSM [21]) was 0.31 nM, the koff (Cynomolgus OSM [21]) was 0.000109 s⁻¹ and the kon (Cynomolgus OSM [21]) was 352000 M⁻¹ s⁻¹. The “fold increase in potency compared with 15E10h” value [22] was ~12 fold and the IC50 [23] was 0.0062 µg/mL and 0.041 nM.

Reference: patent US20130251724A1 (GlaxoSmithKline, published 2013)
